# Tests used:
# [1] = target: T1, Anti-CD28 Fab (SEQ ID NOs: 696, 697); assay: phage ELISA, clonal phage on biotinylated anti-CD28 Fab captured on neutravidin plates;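 further: crude clonal phage supernatants added to wells pretreated with CD28 antigen or with blocking buffer only, bound phage detected by HRP-linked anti-M13 antibody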
# T1 construct: Biotinylated and captured on neutravidin coated plates in the phage ELISA
# T1 sequence (VH, as listed by the source, chain 1 of 2): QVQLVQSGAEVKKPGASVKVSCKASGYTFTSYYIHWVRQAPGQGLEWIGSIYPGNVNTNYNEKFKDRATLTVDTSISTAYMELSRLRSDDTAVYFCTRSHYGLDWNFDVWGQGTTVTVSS
# T1 sequence (VL, as listed by the source, chain 2 of 2): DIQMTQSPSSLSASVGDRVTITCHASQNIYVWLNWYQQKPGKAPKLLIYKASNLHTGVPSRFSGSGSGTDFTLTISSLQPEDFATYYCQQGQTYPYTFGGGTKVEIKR
# Experimental: (§1) After panning, phage infected bacteria were plated out and colonies picked into 96 well blocks. Clonal phage was then amplified and separated from bacterial cells via centrifugation.
# (§2) Clonal phage were harvested as crude supematants and screened via standard ELISAs. […] Prior to the addition of clonal phage, wells were incubated with blocking buffer and CD28 antigen or blocking buffer alone. Without washing or aspirating, clonal phage supematants were then added to the wells and incubated for a short time. Wells were then washed followed by detection of bound phage using a horse radish conjugated anti-M13 antibody. Clonal phage of interest were then sent for sequence analysis.
# [2] = target: T1, Anti-CD28 Fab (SEQ ID NOs: 696, 697); assay: phage ELISA on captured anti-CD28 Fab, wells pre-incubated with CD28 antigen as competitor;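 further: crude clonal phage supernatants added without washing, bound phage read out by HRP-coupled anti-M13 antibody, reference wells given blocking buffer only instead of CD28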
# Experimental: as §1, §2
# [3] = target: T2, Anti-CD28 Fab (SEQ ID NOs: 696, 697); assay: phage ELISA; captured anti-CD28 Fab pre-incubated with CD28 antigen as competitor, anti-M13 HRP detection;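 further: crude clonal phage supernatants screened by ELISA, with wells pre-incubated with CD28 antigen in blocking buffer, compared against wells given blocking buffer alone as control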
# T2 construct: In the phage ELISA the Fab was biotinylated and captured on neutravidin coated plates
# T2 sequence (VH, as listed by the source, chain 1 of 2): as the sequence (VH, as listed by the source, chain 1 of 2) above
# T2 sequence (VL, as listed by the source, chain 2 of 2): as the sequence (VL, as listed by the source, chain 2 of 2) above
# Experimental: as §1, §2
# [4] = target: T2, Anti-CD28 Fab (SEQ ID NOs: 696, 697); assay: phage ELISA; biotinylated anti-CD28 Fab on neutravidin plate, clonal phage supernatant, anti-M13 HRP detection;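 further: crude supernatants of single phage clones picked after panning were screened for binding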
# [5] = target: Anti-CD28 Fab (SEQ ID NOs: 696, 697); assay: phage ELISA; Fab-coated wells pre-incubated with CD28 antigen as competitor, anti-M13 HRP detection;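 further: crude clonal phage supernatants screened by ELISA, comparing wells pre-treated with CD28 antigen in blocker against wells given blocker only, bound phage read via HRP-linked anti-M13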
# Target sequence in this assay (VH, as listed by the source, chain 1 of 2): as the sequence (VH, as listed by the source, chain 1 of 2) above
# Target sequence in this assay (VL, as listed by the source, chain 2 of 2): as the sequence (VL, as listed by the source, chain 2 of 2) above
# Experimental: as §1, §2
# [6] = target: Anti-CD28 Fab (SEQ ID NOs: 696, 697); assay: phage ELISA; biotinylated anti-CD28 Fab on neutravidin plate, clonal phage supernatant, anti-M13 HRP detection;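 further: crude supernatants of single phage clones picked after panning were screened for binding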
# Target sequence in this assay (VH, as listed by the source, chain 1 of 2): as the sequence (VH, as listed by the source, chain 1 of 2) above
# Target sequence in this assay (VL, as listed by the source, chain 2 of 2): as the sequence (VL, as listed by the source, chain 2 of 2) above
# [7] = target: T3, Anti-CD28 Fab (SEQ ID NOs: 696, 697); assay: phage ELISA on captured anti-CD28 Fab, wells first incubated with CD28 antigen (competitor)
# T3 construct: Biotinylated and captured on neutravidin coated plates in the phage ELISA
# T3 sequence (VH, as listed by the source, chain 1 of 2): as the sequence (VH, as listed by the source, chain 1 of 2) above
# T3 sequence (VL, as listed by the source, chain 2 of 2): as the sequence (VL, as listed by the source, chain 2 of 2) above
# Experimental: as §1, §2
# [8] = target: T3, Anti-CD28 Fab (SEQ ID NOs: 696, 697); assay: phage ELISA, clonal phage on biotinylated anti-CD28 Fab captured on neutravidin, anti-M13-HRP detection
# Experimental: as §1, §2
binder,measurement,setting,value
YCDGHSEQYMAKCL [Phage-1137],Anti-CD28 Fab signal (phage binding ELISA),[1],1.24
same,Anti-CD28 Fab signal in the presence of CD28 (phage binding ELISA),[2],0.06
YCDGHSPEYMQKCL (Clonal phage supernatant; not shown: fused to the pIII filament protein of the bacteriophage) [Phage-1067],Anti-CD28 Fab signal in the presence of CD28 (phage binding ELISA),[3],0.53
same,Anti-CD28 Fab signal (phage binding ELISA),[4],1.4
YCDGHAPLYIQKCL (Tested as clonal phage supernatant) [Phage-1095],Anti-CD28 Fab signal in the presence of CD28 (phage binding ELISA),[5],0.06
same,Anti-CD28 Fab signal (phage binding ELISA),[6],1.34
YCEGHLQEHMAKCL [Phage-1134],Anti-CD28 Fab signal (phage binding ELISA),[1],1.25
same,Anti-CD28 Fab signal in the presence of CD28 (phage binding ELISA),[2],0.05
YCDGHVEEYMTKCL [Phage-1141],Anti-CD28 Fab signal (phage binding ELISA),[1],1.24
same,Anti-CD28 Fab signal in the presence of CD28 (phage binding ELISA),[2],0.07
YCDGHSEAYIEKCL (Tested as clonal phage supernatant) [Phage-1098],Anti-CD28 Fab signal in the presence of CD28 (phage binding ELISA),[5],0.06
same,Anti-CD28 Fab signal (phage binding ELISA),[6],1.34
YCDGHSMMYMQKCL [Phage-1145],Anti-CD28 Fab signal in the presence of CD28 (phage binding ELISA),[7],0.06
same,Anti-CD28 Fab signal (phage binding ELISA),[8],1.23
YCEGHSAEYIAKCL (Clonal phage supernatant; not shown: fused to the pIII filament protein of the bacteriophage) [Phage-1064],Anti-CD28 Fab signal in the presence of CD28 (phage binding ELISA),[3],0.09
same,Anti-CD28 Fab signal (phage binding ELISA),[4],1.41
YCDGHEARYMQKCL [Phage-1148],Anti-CD28 Fab signal in the presence of CD28 (phage binding ELISA),[7],0.07
same,Anti-CD28 Fab signal (phage binding ELISA),[8],1.21
YCDGHAPQYMRKCL (Tested as clonal phage supernatant) [Phage-1101],Anti-CD28 Fab signal in the presence of CD28 (phage binding ELISA),[5],0.08
same,Anti-CD28 Fab signal (phage binding ELISA),[6],1.33
YCDGHDARYMEKCL (Clonal phage supernatant; not shown: fused to the pIII filament protein of the bacteriophage) [Phage-1066],Anti-CD28 Fab signal in the presence of CD28 (phage binding ELISA),[3],0.06
same,Anti-CD28 Fab signal (phage binding ELISA),[4],1.4
YCEGHTQEYMQKCL [Phage-1138],Anti-CD28 Fab signal (phage binding ELISA),[1],1.24
same,Anti-CD28 Fab signal in the presence of CD28 (phage binding ELISA),[2],0.07
YCDGHNWEYMEKCL (Clonal phage supernatant; not shown: fused to the pIII filament protein of the bacteriophage) [Phage-1072],Anti-CD28 Fab signal in the presence of CD28 (phage binding ELISA),[3],0.05
same,Anti-CD28 Fab signal (phage binding ELISA),[4],1.38
YCEGHSAEHMPKCL [Phage-1146],Anti-CD28 Fab signal in the presence of CD28 (phage binding ELISA),[7],0.09
same,Anti-CD28 Fab signal (phage binding ELISA),[8],1.23
YCEGHLAEYMNKCL [Phage-1140],Anti-CD28 Fab signal (phage binding ELISA),[1],1.24
same,Anti-CD28 Fab signal in the presence of CD28 (phage binding ELISA),[2],0.07
YCEGHHRIYMQKCL [Phage-1131],Anti-CD28 Fab signal (phage binding ELISA),[1],1.26
same,Anti-CD28 Fab signal in the presence of CD28 (phage binding ELISA),[2],0.07
YCDGHLEQYMLKCL [Phage-1142],Anti-CD28 Fab signal (phage binding ELISA),[1],1.24
same,Anti-CD28 Fab signal in the presence of CD28 (phage binding ELISA),[2],0.09
YCAGHVDQYLWKCL (Tested as clonal phage supernatant) [Phage-1099],Anti-CD28 Fab signal in the presence of CD28 (phage binding ELISA),[5],0.06
same,Anti-CD28 Fab signal (phage binding ELISA),[6],1.34
YCAGHSAEYMSKCL (Clonal phage supernatant; not shown: fused to the pIII filament protein of the bacteriophage) [Phage-1062],Anti-CD28 Fab signal in the presence of CD28 (phage binding ELISA),[3],0.07
same,Anti-CD28 Fab signal (phage binding ELISA),[4],1.41
YCAGHASEYMAKCL (Tested as clonal phage supernatant) [Phage-1100],Anti-CD28 Fab signal in the presence of CD28 (phage binding ELISA),[5],0.08
same,Anti-CD28 Fab signal (phage binding ELISA),[6],1.33
YCDGHMVQYMAKCL (Tested as clonal phage supernatant) [Phage-1089],Anti-CD28 Fab signal in the presence of CD28 (phage binding ELISA),[5],0.07
same,Anti-CD28 Fab signal (phage binding ELISA),[6],1.36
YCEGHIGIYMSKCL [Phage-1143],Anti-CD28 Fab signal in the presence of CD28 (phage binding ELISA),[7],0.07
same,Anti-CD28 Fab signal (phage binding ELISA),[8],1.23
YCDGHLPEYMQKCL (Tested as clonal phage supernatant) [Phage-1093],Anti-CD28 Fab signal in the presence of CD28 (phage binding ELISA),[5],0.08
same,Anti-CD28 Fab signal (phage binding ELISA),[6],1.35
YCDGHSSVYMLKCL [Phage-1130],Anti-CD28 Fab signal (phage binding ELISA),[1],1.26
same,Anti-CD28 Fab signal in the presence of CD28 (phage binding ELISA),[2],0.06
YCVGHYPEYMEKCL [Phage-1147],Anti-CD28 Fab signal in the presence of CD28 (phage binding ELISA),[7],0.07
same,Anti-CD28 Fab signal (phage binding ELISA),[8],1.22
YCAGHTAEYMAKCL [Phage-1139],Anti-CD28 Fab signal (phage binding ELISA),[1],1.24
same,Anti-CD28 Fab signal in the presence of CD28 (phage binding ELISA),[2],0.08
YCDGHLLQYMHKCL (Tested as clonal phage supernatant) [Phage-1094],Anti-CD28 Fab signal in the presence of CD28 (phage binding ELISA),[5],0.07
same,Anti-CD28 Fab signal (phage binding ELISA),[6],1.35
YCDGHLPRYMAKCL (Tested as clonal phage supernatant) [Phage-1092],Anti-CD28 Fab signal in the presence of CD28 (phage binding ELISA),[5],0.1
same,Anti-CD28 Fab signal (phage binding ELISA),[6],1.35
YCSGHLPEYMDKCL (Clonal phage supernatant; not shown: fused to the pIII filament protein of the bacteriophage) [Phage-1069],Anti-CD28 Fab signal in the presence of CD28 (phage binding ELISA),[3],0.07
same,Anti-CD28 Fab signal (phage binding ELISA),[4],1.39
YCDGHSKEYMAKCL (Tested as clonal phage supernatant) [Phage-1096],Anti-CD28 Fab signal in the presence of CD28 (phage binding ELISA),[5],0.06
same,Anti-CD28 Fab signal (phage binding ELISA),[6],1.34
YCDGHSPEHMGKCL (Clonal phage supernatant; not shown: fused to the pIII filament protein of the bacteriophage) [Phage-1065],Anti-CD28 Fab signal in the presence of CD28 (phage binding ELISA),[3],0.09
same,Anti-CD28 Fab signal (phage binding ELISA),[4],1.4
YCAGLFEEYMSKCL [Phage-1135],Anti-CD28 Fab signal (phage binding ELISA),[1],1.25
same,Anti-CD28 Fab signal in the presence of CD28 (phage binding ELISA),[2],0.06
YCDGHAEQYMSKCL (Clonal phage supernatant; not shown: fused to the pIII filament protein of the bacteriophage) [Phage-1073],Anti-CD28 Fab signal in the presence of CD28 (phage binding ELISA),[3],0.07
same,Anti-CD28 Fab signal (phage binding ELISA),[4],1.38
YCDGHSLEYMLKCL (Clonal phage supernatant; not shown: fused to the pIII filament protein of the bacteriophage) [Phage-1070],Anti-CD28 Fab signal in the presence of CD28 (phage binding ELISA),[3],0.07
same,Anti-CD28 Fab signal (phage binding ELISA),[4],1.39
YCEGHSEEYMAKCL [Phage-1132],Anti-CD28 Fab signal (phage binding ELISA),[1],1.26
same,Anti-CD28 Fab signal in the presence of CD28 (phage binding ELISA),[2],0.07
YCEGHLPMYMTKCL [Phage-1136],Anti-CD28 Fab signal (phage binding ELISA),[1],1.25
same,Anti-CD28 Fab signal in the presence of CD28 (phage binding ELISA),[2],0.06
YCNGHLPEYMSKCI (Clonal phage supernatant; not shown: fused to the pIII filament protein of the bacteriophage) [Phage-1068],Anti-CD28 Fab signal in the presence of CD28 (phage binding ELISA),[3],0.07
same,Anti-CD28 Fab signal (phage binding ELISA),[4],1.4
YCDGLFQLYMMKCL (Clonal phage supernatant; not shown: fused to the pIII filament protein of the bacteriophage) [Phage-1074],Anti-CD28 Fab signal in the presence of CD28 (phage binding ELISA),[3],0.07
same,Anti-CD28 Fab signal (phage binding ELISA),[4],1.38
YCEGHMEKYMEKCL (Tested as clonal phage supernatant) [Phage-1091],Anti-CD28 Fab signal in the presence of CD28 (phage binding ELISA),[5],0.11
same,Anti-CD28 Fab signal (phage binding ELISA),[6],1.35
YCDGHLMEYKAKCL (Clonal phage supernatant; not shown: fused to the pIII filament protein of the bacteriophage) [Phage-1063],Anti-CD28 Fab signal in the presence of CD28 (phage binding ELISA),[3],0.06
same,Anti-CD28 Fab signal (phage binding ELISA),[4],1.41
YCEGHSTEYIQKCL [Phage-1144],Anti-CD28 Fab signal in the presence of CD28 (phage binding ELISA),[7],0.09
same,Anti-CD28 Fab signal (phage binding ELISA),[8],1.23
YCEGHHPWYVQKCL (Clonal phage supernatant; not shown: fused to the pIII filament protein of the bacteriophage) [Phage-1071],Anti-CD28 Fab signal in the presence of CD28 (phage binding ELISA),[3],0.07
same,Anti-CD28 Fab signal (phage binding ELISA),[4],1.39
YCDGHSEEFMWKCL (Tested as clonal phage supernatant) [Phage-1090],Anti-CD28 Fab signal in the presence of CD28 (phage binding ELISA),[5],0.06
same,Anti-CD28 Fab signal (phage binding ELISA),[6],1.35
YCEGHSPEYMHKCL (Tested as clonal phage supernatant) [Phage-1097],Anti-CD28 Fab signal in the presence of CD28 (phage binding ELISA),[5],0.09
same,Anti-CD28 Fab signal (phage binding ELISA),[6],1.34
YCEGHMSIYMQKCL [Phage-1133],Anti-CD28 Fab signal (phage binding ELISA),[1],1.25
same,Anti-CD28 Fab signal in the presence of CD28 (phage binding ELISA),[2],0.07
